In experiment [1] the target is T1, IL-26 (human, UniProt Q9NPH9).
T1 construct: coated on the ELISA plate at 1 µg/ml; also called human IL-26
T1 sequence (cytokine, looked up): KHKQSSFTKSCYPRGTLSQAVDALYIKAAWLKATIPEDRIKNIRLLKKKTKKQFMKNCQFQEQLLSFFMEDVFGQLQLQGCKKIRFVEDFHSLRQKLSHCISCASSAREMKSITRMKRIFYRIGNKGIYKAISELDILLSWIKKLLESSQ
Briefly: ELISA: plate coated with 1 µg/ml human IL-26, IgG at 1 µg/ml, HRP anti-human IgG, A450. The method, then:
(§1) Cross species reactivity of germlined and non-germlined optimized antibodies were determined as follows: ELISA plates (Costar, Cat. #3590) were coated overnight with 1 μg/ml of rat, mouse, or human IL-22 or human IL-26 in PBS buffer. Plates were washed with PBST buffer (0.05% Tween20 in PBS) 3 times, then blocked with 1% BSA (Sigma A8918)/PBST for 1 hr at RT. Antibodies were added at 1 μg/ml, incubated 1 hr at 25° C. […] The plates were incubated for 1 hour at 25° C., then washed with PBST, and developed with TMB (KPL, Cat. #50-76-04). Reaction was stopped with 0.18 M H₂S0₄. Plates were read at OD 450 nm.
A general note: In an ELISA, binding on a coated surface is turned into a signal by an enzyme label.

Experiment [2] deals with T2, human IL-22 (human, UniProt Q9GZX6 34-179).
T2 sequence: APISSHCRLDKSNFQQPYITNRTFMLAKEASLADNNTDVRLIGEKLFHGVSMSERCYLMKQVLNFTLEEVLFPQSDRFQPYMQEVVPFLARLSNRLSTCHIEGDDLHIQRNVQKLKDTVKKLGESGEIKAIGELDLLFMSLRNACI
The experiment is described as follows: cell-based or functional assay.

The target of experiment [3] is T3, murine IL-22 (murine, UniProt Q9JJY9 34-179).
T3 construct: also called mouse IL-22
T3 sequence: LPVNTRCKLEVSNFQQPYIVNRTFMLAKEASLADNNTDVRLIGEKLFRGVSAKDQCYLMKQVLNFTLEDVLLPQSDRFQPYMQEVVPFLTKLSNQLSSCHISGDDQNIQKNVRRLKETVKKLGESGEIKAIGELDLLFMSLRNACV
Briefly: ELISA: plate coated with 1 µg/ml antigen, IgG at 1 µg/ml, HRP anti-human IgG, A450. As for the experimental part:
as §1

Experiment [4] has as its target T4, BSA (bovine, UniProt P02769).
T4 construct: background wells labelled BSA; also called bovine serum albumin
Briefly: ELISA: wells labelled BSA, IgG at 1 µg/ml, HRP anti-human IgG, A450. The method, then:
as §1

For experiment [5], the target named is T2, human IL-22. Briefly: cell-based or functional assay. The source holds these as a separate data set.
In experiment [6] the target is T5, biotinylated IL-22 with an N-terminal His/FLAG tag (bio.IL-22H/F) (human, UniProt Q9GZX6 34-179, biotinylated (site not stated)).
T5 construct: not shown: N-terminal His/FLAG tag
T5 sequence: T2 sequence
The experiment is described as follows: DELFIA competition assay: scFv titrated against bio.IL-22H/F binding to the captured IL-22 receptor complex. The method, then:
(§2) Microtiter plates were coated with an IL-22 receptor complex antibody (1 μg/ml in PBS), and incubated for 1.5 hours at room temperature. Plates were washed three times in PBST, and blocked for 1 hour at room temperature with 2% MPBS. After a further 3 washes, diluted cell conditioned medium containing an IL-22 receptor complex was added and incubated overnight at 4° C. Crude scFv supernatants were prepared as described above. The following day, 25 μl of diluted scFv sample and 25 μl of bio.IL-22H/F (6 ng/ml) were added to the washed plates, and incubated for 1.5 hours at room temperature. Plates were washed 3 times in PBST, then binding of bio.IL-22H/F to the IL-22 receptor complex was detected with Europium-Streptavidin and the DELFIA® reagent kit (PerkinElmer). Time Resolved Fluorescence was measured using a Victor 2™ Plate Reader (Perkin Elmer).
(§3) Purified scFv from positive clones identified from the screening were tested in the DELFIA® IL-22 receptor complex competition assay as described above. A titration of scFv concentrations was used in order to establish the clone potency as measured by IC₅₀ values in the assay. Fourteen optimized clones were designated 097D09, 062A09, 062G05, 087B03, 367D04, 368D04, 166B06, 166G05, 375G06, 376B10, 354A08, 355B06, 355E04, and 356A11.

Experiment [7] concerns the target T5, biotinylated IL-22 with an N-terminal …. Briefly: IL-22 receptor complex inhibition assay (bio.IL-22H/F binding to IL-22 receptor complex, DELFIA), scFv. As for the experimental part: (§4) Both the IL-22/IL-22R binding assay (described above) and the IL-22/IL-22 receptor complex assay (described below) were used. ScFv concentrations were titrated in order to establish the clone potencies as measured by assay IC₅₀ values. These were determined using GraphPad Prism software and four-parameter logistic equation curve fitting.
as §2

For experiment [8] the target is unchanged. The experiment is described as follows: biotinylated IL-22 binding IL-22 receptor complex competition assay, purified scFv, parent. As for the experimental part: as §2
Sequence data for the six parent clones was used to identify the nearest germline sequence for the heavy and light chain of each clone. Appropriate mutations were made using standard site directed mutagenesis techniques with the appropriate mutagenic primers. Mutation of sequences was confirmed by sequence analysis. Purified scFv from the germlined parent clones were tested in the biotinylated IL-22 binding IL-22 receptor complex competition assay as described earlier, in order to establish the clone potency as measured by IC₅₀ values in the assay.

Experiment [9] shares this target. Briefly: DELFIA competition assay: scFv titrated against bio.IL-22H/F binding to the captured IL-22 receptor complex. As for the experimental part: as §4, §2
This is another data set of the same source.

For experiment [10] the target is unchanged. The experiment is described as above. As for the experimental part:
as §2, §3
The source holds these as a separate data set.

Residue numbers refer to the chain shown, from its start.

What is called IC50 is the concentration that gives 50% inhibition.

T4 sequence (P02769 25-607 limits assumed): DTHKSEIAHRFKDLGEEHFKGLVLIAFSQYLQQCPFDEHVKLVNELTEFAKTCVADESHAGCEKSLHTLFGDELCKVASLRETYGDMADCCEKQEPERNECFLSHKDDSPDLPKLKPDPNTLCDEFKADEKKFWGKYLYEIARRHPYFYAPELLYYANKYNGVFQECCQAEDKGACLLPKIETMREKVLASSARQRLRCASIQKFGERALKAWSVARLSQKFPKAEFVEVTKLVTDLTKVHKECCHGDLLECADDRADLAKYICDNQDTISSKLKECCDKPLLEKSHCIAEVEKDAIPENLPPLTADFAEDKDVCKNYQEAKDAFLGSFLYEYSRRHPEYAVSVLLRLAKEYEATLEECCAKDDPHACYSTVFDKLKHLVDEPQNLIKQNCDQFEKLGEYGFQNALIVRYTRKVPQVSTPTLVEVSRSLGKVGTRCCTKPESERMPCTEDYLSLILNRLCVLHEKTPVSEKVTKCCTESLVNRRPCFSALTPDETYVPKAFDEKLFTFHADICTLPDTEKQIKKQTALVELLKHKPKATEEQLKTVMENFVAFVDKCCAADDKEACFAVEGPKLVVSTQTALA

B1: 097D09 IgG (non-germlined) (antibody, V domains shown)
VH: EVQLVESGGGLVTPGGSLRLSCAASGFTFSDYYMSWVRQAPGRGLEWVSAISGSGGSTYYADSVKGRITISRDNAKNSLYLQMSSLRSEDTAVYYCARGLWVWDPLDYWGRGTLVTVSS
VL: DIQMTQSPSTLSASIGDRVTITCRASEGIYHWLAWYQQKPGKAPKLLIYKASSLASGAPSRFSGSGFGTDFTLTISSLQPDDFATYYCQQYSEFAWTFGGGTKLEIKR
notes: IgG
Turning to B1, the binding result in experiment [1], in [3] and in experiment [4] was “no binding (tested: 1 µg/ml (single concentration))” in each case. For the same molecule, the “IC50 of IgG in BaF3-IL-22 proliferation assay” value (from here on “IC50 of IgG”) in experiment [2] came out at 197 pM.

B2: 355B06 germlined IgG (antibody, V domains shown)
VH: QVQLVQSGAEVKKPGASVKVSCKASGYTFTDYYMHWVRQAPGQGLEWVGWINPYTGSAFYAQKFRGRVTMTRDTSISTAYMELSRLRSDDTAVYYCAREPEKFGESSGQLWGRGTLVTVSS
VL: QAVLTQPPSVSGAPGQRVTISCTGSSSNIGAGYGVHWYQQLPGTAPKLLIYGDSNRPSGVPDRFSGSKSGTSASLAITGLQAEDEADYYCQSYDSGLSGYVFGGGTQLTVLG
As for B2, the binding result in experiment [1] is given as “no binding (tested: 1 µg/ml (single concentration))”; in [3] it was “binds”; in [4] it was “no binding (tested: 1 µg/ml (single concentration))”. Moreover, in [5], the “IC50 (pM) of germlined IgG in BaF3-IL-22R proliferation assay” value amounted to 92 pM. The “IC50 of IgG” value in experiment [2] was 92 pM.

B3: 355E04 germlined IgG (antibody, V domains shown)
VH: B2 VH with D31H, S57G, R65Q, G104D, E105S, S106P, S107N, G108A, Q109E, L110I
VL: B2 VL with D53N, G96S
Turning to B3, the binding result is listed as “no binding (tested: 1 µg/ml (single concentration))” in [1], “binds” in [3] and “no binding (tested: 1 µg/ml (single concentration))” in experiment [4]. Moreover, in experiment [5], the “IC50 (pM) of germlined IgG in BaF3-IL-22R proliferation assay” value was 100 pM. For the same molecule, the “IC50 of IgG” value in [2] came to 100 pM.

B4: 368D04 IgG (non-germlined) (antibody, V domains shown)
VH: EVQLVESGGGVVRPGGSLRLSCAASGFTFDDYGMNWVRQAPGKGLEWVSGVNWNGGTRDYAASVKGRFTISRDNAKNSLYLQMNSLRAEDTALYYCARGWYSGAAWNMGYWGRGTLVTVSS
VL: QAVLTQPSSVSGSPGQSITISCTGASGDVGAYNFVSWYQQHPGKTPKLIIYDVNKRPSGVSNRFSGSKSGNTASLTISGLQAEDESDYYCASLVSDFSVVFGGGTKVTVLG
On to B4, for which the binding result in experiment [1] is reported as “no binding (tested: 1 µg/ml (single concentration))”; in experiment [3], “binds”; in [4], “no binding (tested: 1 µg/ml (single concentration))”. In addition, the “IC50 of IgG” value in experiment [2] is 127 pM.

B5: 166B06 scFv (non-germlined) (scFv)
scFv: EVQLVQSGAEVKKPGASVKVSCQASGYTFSDYYIHWVRQTPGQGFEWMGWVNPDTGGTRYAQKFQGWVTMTRDMSNTTAYMELPRLRDDDTAVYYCARDLTGFDPFDIWGQGTLVTVSSGGGSSGGGGSGGGGSAQSVLTQPPSVSVAPGKTATITCGGNNFRNKRVHWYQQRPGQAPVLVIYYDSDRPSGIPERFSGSRSGNTATLTISRVEAGDEADFYCQVWDLFNDNGVFGGGTKLTVLGAAAH
notes: Optimized clone derived from GIL68
B5: the “IC50 of scFv in BaF3-IL-22 proliferation assay” value in experiment [2] came to 460 pM. For the same molecule, the IC50 in experiment [6] is 620 pM.

B6: GIL68 scFv (non-germlined parent) (scFv)
scFv: EVQLVQSGAEVKKPGASVKVSCQASGYTFSDYYIHWVRQTPGQGFEWMGWVNPDTGGTRYAQKFQGWVTMTRDMSNTTAYMELPRLRDDDTAVYYCARDLTGFDPFDIWGQGTLVTVSSGGGGSGGGGSGGGGSAQSVLTQPPSVSVAPGKTATITCGGNNFRNKRVHWYQQRPGQAPVLVIYYDSDRPSGIPERFSGSRSGNTATLTISRVEAGDEADFYCQVWDSSTDRPLFGGGTKLTVLGAAA
Take B6: the IC50 came to 7000 pM in experiment [7]; 9000 pM in [8]; 10000 pM in experiment [9]; 7450 pM in experiment [10]; 10600 pM in [6].
